In article PMC9816786 (2022):

Key:
Test in all cases: BLI
[1] = biological target: P1.40 T109A
[2] = biological target: P1.40 D62A
[3] = biological target: P1.40 R43A
[4] = biological target: P1.40 E44A
[5] = biological target: P1.40 E46A
[6] = biological target: P1.40 F110A
[7] = biological target: P1.40 R111A
[8] = biological target: P1.40 D89A

Kd [1]: > 1000 nM
koff [1]: > 0.001 s⁻¹
Kd [2]: 1.26 nM
koff [2]: 0.000668 s⁻¹
Kd [3]: 2.86 nM
koff [3]: 0.00141 s⁻¹
Kd [4]: 0.477 nM
koff [4]: 0.000359 s⁻¹
Kd [5]: 1.22 nM
koff [5]: 0.00064 s⁻¹
Kd [6]: > 1000 nM
koff [6]: > 0.001 s⁻¹
Kd [7]: 3.49 nM
koff [7]: 0.00147 s⁻¹
Kd [8]: 2.79 nM
koff [8]: 0.000882 s⁻¹
B1: CHRD (aa 449–693) of human PCSK9, 6xHis-tagged (domain or fragment)
chain: HGAGWQLFCRTVWSAHSGPTRMATAVARCAPDEELLSCSSFSRSGKRRGERMEAQGGKLVCRAHNAFGGEGVYAIARCCLLPQANCSVHTAPPAEASMGTRVHCHQQGHVLTGCSSHWEVEDLGTHKPPVLRPRGQPNQCVGHREASIHASCCHAPGLECKVKEHGIPAPQEQVTVACEEGWTLTGCSALPGTSHVLGAYAVDNTCVVRSRDVSTTGSTSEGAVTAVAICCRSRHLAQASQELQ
modifications: biotinylated where it was immobilised for BLI (site not told)
